Data taken from the DeepSol protein solubility set.

experiment: soluble on expression in E. coli; label from the status in PepcDB or PDB records

Row | Sequence | soluble on expression in E. coli
1 | MFTATEAVPVAKVVAGNKRYPGVVALDNVNFTLNKGEVRALLGKNGAGKSTLIRMLTGSERPDSGDIWIGETRLEGDEATLTRRAAELGVRAVYQELSLVEGLTVAENLCLGQWPRRNGMIDYLQMAQDAQRCLQALGVDVSPEQLVSTLSPAQKQLVEIARVMKGEPRVVILDEPTSSLASAEVELVISAVKKMSALGVAVIYVSHRMEEIRRIASCATVMRDGQVAGDVMLENTSTHHIVSLMLGRDHVDIAPVAPQEIVDQAVLEVRALRHKPKLEDISFTLRRGEVLGIAGLLGAGRSELLKAIVGLEEYEQGEIVINGEKITRPDYGDMLKRGIGYTPENRKEAGIIPWLGVDENTVLTNRQKISANGVLQWSTIRRLTEEVMQRMTVKAASSETPIGTLSGGNQQKVVIGRWVYAASQILLLDEPTRGVDIEAKQQIYRIVRELAAEGKSVVFISSEVEELPLVCDRILLLQHGTFSQEFHAPVNVDELMSAILSVH | soluble
2 | GPGSMKKTVAAAPPKSPAPAKSKISVTRTGVNTTYPMPPPMPEKNYAPFFAEGCQTIAASKASMPPVQPASPLPPMHSAPPTASVVSNSIPPSSPATAPGERSPAVAARSVPTRFSPATVPRHHMNPNATEFMPGRRNGPDGGLEALPTSTADMELAKTPAGAAAAAVHAPSLPGAVRRSLQNSPIIQPSRLSVKSASEIEAISKNSALNAAAAAYVPQRTLARVVLTQPSPLALAPSEDPAKNNIEMMLDDLWCLFYLPTTLGENIKEEDYNPTLVFRVDSILTFWRVVNNIAAPSELQLSTLYLFRDGIDPKWEDPANRDGGIVKVKATAAQVDEAWELLLCRTIGDSWSPSVRETVNGVVLKVRERAYWLELWVTKNSSALQKDLAELWHPILGASFATTYLTHAMMQERSHAAAALAAEKQKKNRRRY | soluble
3 | DDKLRIGGTALFKRDRFVDNIGIEDSFFLKLMVDEMKQTTHQFQIDEDGEKAYVVVEKIFSSFNREMTGSMEAPHFRCHIHFRGEITDYTGPLTLTKDETMNKIEEGMARQIETKGEELLKRFQSLGIDPVGLGEKYRSHTRDWKPGVWHDSIYEQATVEVTAEVEIVQSGVTE | not soluble
4 | MAGEILVIGGGISGLTAAIEAAETGYDVILLEKNPYLGGRVSQLNKYFPKLCPPFCGLEILFKRMKSTPKLKYFTNAEVQEISGESGNFTVKVKLKPRYVNENCTACGACKEVCPIEAPDEYNFGLKKKKAIDLPNIMAMPFQYYIDDKYCNKCGECVSACKYNAIDLNEEEREMTLNVSSIIVATGWKPYDATKLDNLGYGKYKNVITNMEMERLASPNGPTGGVIQTMDGKPIETIAFVQCAGSRDENHLPYCSAICCLASLKQATYVREQYPDAKIYIFYIDIRAFGRYEDFFAKVKADEKIELIKGKVAKVEEVDGKLVVTAEDTLTGVKSKKEVDMVVLATGMQPAIEPIPGLELDEYGFVKPKPGIIPVGVAAMPMEVASANETATAAALKAIQLARRLEHHHHHH | soluble
5 | MNLVKLLANNWQPIAIIALVGTGLAVSHHQGYKSAFAKQQAVIDKMERDKAQALLLSAQNYARELELARAEAKKYEVKAHAVGMALAKKQAEVSRLKTERDLCKIPFPPDSRNPNTGFRLFSPQIPPNFTQIPP | not soluble
6 | SGEIKVSPDYNWFRSTVPLKKIIVDDDDSKIWSLYDAGPRSIRCPLIFLPPVSGTADVFFQQILALTGWGYRVIALQYPVYWDHLEFCDGFRKLLDHLQLDKVHLFGASLGGFLAQKFAEYTHKSPRVHSLILCNAFSDTSIFNQTWTANSFWLMPAFMLKKIVLGNFSSGPVDPMMADAIDFMVDRLESLGQSELASRLTLNCQNSYVEPHKIRDIPVTIMDIHLLQFHGTKYAAIDPSVVSAEELDVQKGQLDLSQEEP | soluble
7 | SLHLGEQIWIYQGKKKEWLLGQIPEVNSALVSLNSDNGAIEAIVGGFSFEQSRFNRATQSLVQVGSSIKPFIYAAAMNKGLSLSTTLSDTPITINKQGQKPWEPKNADKRYEGPLRLRVALGKSKNMVAIRALQMSGVDYVADYLSRFGFNPDQFMATEALALGAASFTPLEMARAYAVFDNGGYLIEPYIIDRILDNQGNELFKANPALACLECNHIDLAYQEPTYFDGVKIHDEDQLRAEIDEINANPAASNTQTEDDQEPEIATTIKPQAPSLMTESIKNDASMRYAPRVISGELAFLMRSALNSAIYGEPGQNWHGTSRAIAKAFKRKDIGGKTGTTNNSKVTWYAGFGANIVTTVYVGFDDNRRDLGKGEAGAKTAMPAWIKYMKVALADKK | not soluble
8 | MSSFFPLPPAIGKSTGCGVRDESQSLVVWAIEDYSIPESIDPDMINLKIETAIVKKFNLRSSAVVTTWIFGSAENAWLAKSKVKLWESEFRVSLHKGGDKRARLNMMLADVIYYVWNWKAPTNLAVLTENKEEMEQDPKFFRFRQALENKGFFVAVEHPETLINQETAVEDPPDDSPIPYYPSDNPQKLAFWYKEDSEAYRAKYKQVRGTKRTI | soluble
9 | MKKAKKEKKEKIIKPDGPINFNRSIMAAFEKQSRGKICPLCETKFSLASYKSHMNTCNVADDDEEIEVIATYTRDEAILMRAGPEIILGDASFSDKSENPTKRRKTDEREVPSEDDIVPEVPGPSGIVKNHEMPSESLDVTEISENIEKVIKKSPEWINHRRRSSRLLQNSQKDQADNANKEDPVKKETATISEVLQAIERFEQRVSGPEQTWPYYIKITIKIMKRVISTEKFDGTFYADDFWLPSDIITFYRFVELLSEGAKCLLVRLFIRKPAWYNLEKLEQKYPEIPNIKEAVSELAKGHFIDDDSSMKTLDEALQISDVVALKNVTKKFKLDGTKNRQELIQSLRKFAQSQQSIFGGTGNVEKSILKSLKQELGPCVRVRGGFVDLFKCLFTIYCPVTTNSANVIDNPSTTNVYQDLLYLMLSVANGTVQFPAPNPCPIIASFYKNRNMLQDYMISKSLEIAIVSQMSNGNLDAALDLAIDAKEFIEQMSDDDKRYYESLEIHERKFTSIWVFTRCCGHASSILERQKKYGMAVEWQKDLLITNKDIQSYCIDSRGIWWDRMLLNLDSHLKEKKECAKMIQIALQDPSILEKELLMIQDRALKLKEMPADFVTPINIGNPEKKTITANVITKSLGDGRINRFMIRDHETDDDVECSVEEVTRRHYLENEGFSTGVHDEGSTWHTLFGLFFYDVIFATDESVESTWLSELQDCPSDLSNTLYSKRKEKFEDRFVWLEEAEQELIEENIRKIWDLKHNETNRECSWKQFPMGAEDCVSFFQCIPRPALILILRRLAENYRNSRSGFPDLTLWNPETKRVAVVEVKGPGDRLSTKQRLWLAIFADSGIRAEVCHVAAQNSRLLV | not soluble
10 | MNFNTILEEILIKRSQQKKKTSPLNYKERLFVLTKSVLSYYEGRAEKKYRKGVIDISKIKCVEIVKNDDGVIPCQNKFPFQVVHDANTLYIFAPSPQSRDRWVKKLKEEIKNNNNIMIKYHPKFWADGSYQCCRQTEKLAPGCEKYNLFESSIRKTLPPAPEIKKRRPPPPIPPEEENTEEIVVAMYDFQATEAHDLRLERGQEYIILEKNDLHWWRARDKYGSEGYIPSNYVTGKKSNNLDQYEWYCRNTNRSKAEQLLRTEDKEGGFMVRDSSQPGLYTVSLYTKFGGEGSSGFRHYHIKETATSPKKYYLAEKHAFGSIPEIIEYHKHNAAGLVTRLRYPVSTKGKNAPTTAGFSYDKWEINPSELTFMRELGSGLFGVVRLGKWRAQYKVAIKAIREGAMCEEDFIEEAKVMMKLTHPKLVQLYGVCTQQKPIYIVTEFMERGCLLNFLRQRQGHFSRDMLLSMCQDVCEGMEYLERNSFIHRDLAARNCLVNEAGVVKVSDFGMARYVLDDQYTSSSGAKFPVKWCPPEVFNYSRFSSKSDVWSFGVLMWEIFTEGRMPFEKNTNYEVVTMVTRGHRLHRPKLASKYLYEVMLRCWQERPEGRPSFEDLLRTIDELVECEETFGR | soluble
11 | MRLPILLLSILGLSLGFGHDSPSSPAANQYATELADRFFTKFIKAVKYSDVRVMDSLLLSSNENLSSKNMIREFYKYPNTKIHDARFVGRNIATTVFFPLSPHGYDIPFKSADFILKKRFMGDWAITSMENLKYNSGKG | not soluble
12 | LVQGPSLIGIHANEREDIETKKFVNWYLNTKVQWEENSIKTPAEYVADKASYLLPFKNRLNNTNSYNEFVKTAVSQFADKNVTKFAEPADFLSNKVRD | not soluble
13 | MSLEKTTRMNYLFDFYQSLLTSKQKSYMSLYYLDDFSLGEIAEEYEVSRQAVYDNIKRTEAMLEQYEEKLLLLKKFQERKEMFNKLKELASGSKEEEEITALIEALEKLD | soluble
14 | MGSDKIHHHHHHDIRPVGSVIPQTAEEYRALLARAYLNVPNDRGLACLRSDEMLVNDNEYDRNSYGDIERWNDVSPFPGTSQFTWSNFYNVLFIANQVIESQKEITEGTPEVVNQLVGEAHLLRAYLHFVLVNLHGQPYTKSGALNSKSIPLKLDTDLEKTLGRNTVEEVYTSILSDIEHARELINKEKWETVFSYRFNVLSVDALQSRVSLYMGAWPKCLESAEAVLAKKSVLVDMNETPLALPNHFESVESITALEQVMGSSVNNAVWVPATFLALYQEGDKRLAAYFAAPDENGNRKSSKGGKREFSCTFRVGELYLNAAEAAANMDKLPHARMRLLELMRKRYTPEAYDKKENAVNVMDKNALISEILNERARELAFEGHRWFDLRRTTRPRMVKVLQGKTYILEQDDPRYTIPIPRDAIAANPGLAN | not soluble
15 | MGSDKIHHHHHHMRNPKPQEWKTEDYSQKKIADYKAFNFVDGEGVRNSLYVSGCLFACEGCFNKAVQNFNYGTPFTESLMNQIIEDLSHDYVQGLTLLGGEPFLNTDVCLSVVKRVRETFGSAKDIWSWSGYTFEELLLETPDKLELLHSIDILVDGRFELAKRNLNLQFRGSSNQRIIDVPKSLAAGKAVIWEKCHDAETSYEQIKKSI | not soluble
16 | MKPTTISLLQKYKQEKKRFATITAYDYSFAKLFADEGLNVMLVGDSLGMTVQGHDSTLPVTVADIAYHTAAVRRGAPNCLLLADLPFMAYATPEQAFENAATVMRAGANMVKIEGGEWLVETVQMLTERAVPVCGHLGLTPQSVNIFGGYKVQGRGDEAGDQLLSDALALEAAGAQLLVLECVPVELAKRITEALAIPVIGIGAGNVTDGQILVMHDAFGITGGHIPKFAKNFLAETGDIRAAVRQYMAEVESGVYPGEEHSFH | soluble
17 | MSLSLTPLSEKLRPNNLDTFIGQNHLLERLQYIISAPRLPSMLFFGPPGCGKSTLALLLAYKKSTNILRISAPETGIQQLRQKLTDIDILILDEIHRFSKAQQDFFLPLLESGKLTMLATTTENPSFSVTKQLLSRLNVLQLRQLGYNELKELVKKGTLFLNILLPDDVINFLATTAHGDARTLFNLIEYISILPEEKRVLEYIKINLPEILERHDKDGDSHYEYASALIKSIRGSNPDAALYYLACLLEGGEDPRFICRRLIISASEDIGLADPQALSLAVSCQQAVEFVGMPEGFIPLSETVVYLALARKSNSTYAAYSNAAREVRLHGAQPVPLHLRNPSTQLQKQWGYGREYKYPHNYPNAWVEQEYFPSTISNRSFYYPKEQGEEPKLNMWHNHIKKKYSEGHHHHHH | not soluble
18 | MSEMGKYKPPAERKYGKGVQSCQRCGSKDSVIQKYGIYLCRQCFREVAYELGFRKYW | soluble
19 | MSLADQAIHWLFPTPVLQADLTPTADVALAMDQQLALFDREVFSHPEFSNRNNLTGDLLGKAGLDQLHRLEAFQWLNQQLAVHVDAFLRELLGPNHALEVHIQKAWPVVCARQGGTIEPHTHRNAQLSAVFYVRTEPDNPSGELEFQAADDYFSHVMAIPYRDAAVSGGVFAPQQHRLLLFPSDLRHQVTPYEGASPRYSVSYDLAITTAPGHGREMRMPHPMDWVPLCKPGPAEGHHHHHH | soluble
